Experiments:
[1] = target: human HLA A2 molecules (Homo sapiens, UniProt P04439, /I121R/I166T/I218V/L300P/L318F/N151K/N90K/P208A/P217A/Q86G/Q94H/R138H/R169H/T345S); type: binding
[2] = system: PBMC from donors expressing the HLA A2 class 1 allele; type: cell-based, human

Substance	score in T2 cell binding assay [1]	T cell lines from PBMC of two prostate cancer patients [2]
PSA 141-150: PSA peptide, amino acids 141-150, sequence F L T P K K L Q C V (Table 7) (FLTPKKLQCV)	positive	
PSA 146-154: PSA peptide, amino acids 146-154, sequence K L Q C V D L H V (Table 7) (KLQCVDLHV)	positive	
PSA 154-163: PSA peptide, amino acids 154-163, sequence V I S N D V C A Q V (Table 7) (VISNDVCAQV)	positive	established

From patent US7598225B1 (priority 1995, dated 2009)
